In patent publication US20140087995A1 (published 2014):
Numbered stars: 1 amine (or outer) side, 2 acyl side, 3 side chain; on linkers, the order of the positions; unused ones are H or OH. Bridge positions count the residues as written; N and C are the ends. Side chains are listed from the residue outwards. Ends that are not written are not given here. * marks the point of attachment. C20 diacid = O=C(O)CCCCCCCCCCCCCCCCCCC(=O)*; γGlu = O=C(O)[C@H](CCC(=O)[*:2])N[*:1]

T1: human calcitonin receptor (human, UniProt P30988 25-474)
T1 construct: whole, on cells; also called hCTR; hCT
T1 sequence (looked up): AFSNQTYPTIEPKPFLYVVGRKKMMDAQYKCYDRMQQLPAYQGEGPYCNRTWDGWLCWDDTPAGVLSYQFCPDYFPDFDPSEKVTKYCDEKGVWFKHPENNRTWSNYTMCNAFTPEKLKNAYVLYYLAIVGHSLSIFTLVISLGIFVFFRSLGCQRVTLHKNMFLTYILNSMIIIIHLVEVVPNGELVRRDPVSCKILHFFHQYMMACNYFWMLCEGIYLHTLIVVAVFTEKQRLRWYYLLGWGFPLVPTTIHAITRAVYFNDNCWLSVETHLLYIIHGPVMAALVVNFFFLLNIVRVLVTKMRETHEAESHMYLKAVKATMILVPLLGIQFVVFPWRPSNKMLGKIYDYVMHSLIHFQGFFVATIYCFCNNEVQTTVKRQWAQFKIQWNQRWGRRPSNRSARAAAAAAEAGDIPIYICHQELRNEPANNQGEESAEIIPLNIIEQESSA

B1: N^ε1-[(4S)-4-carboxy-4-(19-carboxynonadecanoylamino)butanoyl]-[Glu14,Arg17,Pro21,Pro27,Pro34,Glu35]-h-amylin (peptide)
peptide: K([γGlu-C20 diacid])CNTATCATQRLAEFLRHSSPNFGAIPSSTNVGPETY-NH2
modifications: disulfide 2-7; N-terminus assumed
SMILES: CC[C@H](C)[C@H](NC(=O)[C@H](C)NC(=O)CNC(=O)[C@H](Cc1ccccc1)NC(=O)[C@H](CC(N)=O)NC(=O)[C@@H]1CCCN1C(=O)[C@H](CO)NC(=O)[C@H](CO)NC(=O)[C@H](Cc1c[nH]cn1)NC(=O)[C@H](CCCNC(=N)N)NC(=O)[C@H](CC(C)C)NC(=O)[C@H](Cc1ccccc1)NC(=O)[C@H](CCC(=O)O)NC(=O)[C@H](C)NC(=O)[C@H](CC(C)C)NC(=O)[C@H](CCCNC(=N)N)NC(=O)[C@H](CCC(N)=O)NC(=O)[C@@H](NC(=O)[C@H](C)NC(=O)[C@@H]1CSSC[C@H](NC(=O)[C@@H](N)CCCCNC(=O)CC[C@H](NC(=O)CCCCCCCCCCCCCCCCCCC(=O)O)C(=O)O)C(=O)N[C@@H](CC(N)=O)C(=O)N[C@@H]([C@@H](C)O)C(=O)N[C@@H](C)C(=O)N[C@@H]([C@@H](C)O)C(=O)N1)[C@@H](C)O)C(=O)N1CCC[C@H]1C(=O)N[C@@H](CO)C(=O)N[C@@H](CO)C(=O)N[C@H](C(=O)N[C@@H](CC(N)=O)C(=O)N[C@H](C(=O)NCC(=O)N1CCC[C@H]1C(=O)N[C@@H](CCC(=O)O)C(=O)N[C@H](C(=O)N[C@@H](Cc1ccc(O)cc1)C(N)=O)[C@@H](C)O)C(C)C)[C@@H](C)O
B2: N^ε1-[(4S)-4-carboxy-4-(19-carboxynonadecanoylamino)butanoyl]-[His14,Arg17,Pro21,Pro27,His34]-h-amylin (peptide)
peptide: K([γGlu-C20 diacid])CNTATCATQRLAHFLRHSSPNFGAIPSSTNVGHNTY-NH2
modifications: disulfide 2-7; N-terminus assumed
SMILES: CC[C@H](C)[C@H](NC(=O)[C@H](C)NC(=O)CNC(=O)[C@H](Cc1ccccc1)NC(=O)[C@H](CC(N)=O)NC(=O)[C@@H]1CCCN1C(=O)[C@H](CO)NC(=O)[C@H](CO)NC(=O)[C@H](Cc1c[nH]cn1)NC(=O)[C@H](CCCNC(=N)N)NC(=O)[C@H](CC(C)C)NC(=O)[C@H](Cc1ccccc1)NC(=O)[C@H](Cc1c[nH]cn1)NC(=O)[C@H](C)NC(=O)[C@H](CC(C)C)NC(=O)[C@H](CCCNC(=N)N)NC(=O)[C@H](CCC(N)=O)NC(=O)[C@@H](NC(=O)[C@H](C)NC(=O)[C@@H]1CSSC[C@H](NC(=O)[C@@H](N)CCCCNC(=O)CC[C@H](NC(=O)CCCCCCCCCCCCCCCCCCC(=O)O)C(=O)O)C(=O)N[C@@H](CC(N)=O)C(=O)N[C@@H]([C@@H](C)O)C(=O)N[C@@H](C)C(=O)N[C@@H]([C@@H](C)O)C(=O)N1)[C@@H](C)O)C(=O)N1CCC[C@H]1C(=O)N[C@@H](CO)C(=O)N[C@@H](CO)C(=O)N[C@H](C(=O)N[C@@H](CC(N)=O)C(=O)N[C@H](C(=O)NCC(=O)N[C@@H](Cc1c[nH]cn1)C(=O)N[C@@H](CC(N)=O)C(=O)N[C@H](C(=O)N[C@@H](Cc1ccc(O)cc1)C(N)=O)[C@@H](C)O)C(C)C)[C@@H](C)O
notes: also called compound 81
B3: N^ε1-[(4S)-4-carboxy-4-[[(4S)-4-carboxy-4-(19-carboxynonadecanoylamino)butanoyl]amino]butanoyl]-[Arg17,Pro21,Pro27,Pro31,Pro34,Arg35]-h-amylin (peptide)
peptide: K([γGlu-γGlu-C20 diacid])CNTATCATQRLANFLRHSSPNFGAIPSSTPVGPRTY-NH2
modifications: disulfide 2-7; N-terminus assumed
SMILES: CC[C@H](C)[C@H](NC(=O)[C@H](C)NC(=O)CNC(=O)[C@H](Cc1ccccc1)NC(=O)[C@H](CC(N)=O)NC(=O)[C@@H]1CCCN1C(=O)[C@H](CO)NC(=O)[C@H](CO)NC(=O)[C@H](Cc1c[nH]cn1)NC(=O)[C@H](CCCNC(=N)N)NC(=O)[C@H](CC(C)C)NC(=O)[C@H](Cc1ccccc1)NC(=O)[C@H](CC(N)=O)NC(=O)[C@H](C)NC(=O)[C@H](CC(C)C)NC(=O)[C@H](CCCNC(=N)N)NC(=O)[C@H](CCC(N)=O)NC(=O)[C@@H](NC(=O)[C@H](C)NC(=O)[C@@H]1CSSC[C@H](NC(=O)[C@@H](N)CCCCNC(=O)CC[C@H](NC(=O)CC[C@H](NC(=O)CCCCCCCCCCCCCCCCCCC(=O)O)C(=O)O)C(=O)O)C(=O)N[C@@H](CC(N)=O)C(=O)N[C@@H]([C@@H](C)O)C(=O)N[C@@H](C)C(=O)N[C@@H]([C@@H](C)O)C(=O)N1)[C@@H](C)O)C(=O)N1CCC[C@H]1C(=O)N[C@@H](CO)C(=O)N[C@@H](CO)C(=O)N[C@H](C(=O)N1CCC[C@H]1C(=O)N[C@H](C(=O)NCC(=O)N1CCC[C@H]1C(=O)N[C@@H](CCCNC(=N)N)C(=O)N[C@H](C(=O)N[C@@H](Cc1ccc(O)cc1)C(N)=O)[C@@H](C)O)C(C)C)[C@@H](C)O
B4: N^ε1-[(4S)-4-carboxy-4-(19-carboxynonadecanoylamino)butanoyl]-[His14,Arg17,Pro21,Pro27,Pro31,Pro34]-h-amylin (peptide)
peptide: K([γGlu-C20 diacid])CNTATCATQRLAHFLRHSSPNFGAIPSSTPVGPNTY-NH2
modifications: disulfide 2-7; N-terminus assumed
SMILES: CC[C@H](C)[C@H](NC(=O)[C@H](C)NC(=O)CNC(=O)[C@H](Cc1ccccc1)NC(=O)[C@H](CC(N)=O)NC(=O)[C@@H]1CCCN1C(=O)[C@H](CO)NC(=O)[C@H](CO)NC(=O)[C@H](Cc1c[nH]cn1)NC(=O)[C@H](CCCNC(=N)N)NC(=O)[C@H](CC(C)C)NC(=O)[C@H](Cc1ccccc1)NC(=O)[C@H](Cc1c[nH]cn1)NC(=O)[C@H](C)NC(=O)[C@H](CC(C)C)NC(=O)[C@H](CCCNC(=N)N)NC(=O)[C@H](CCC(N)=O)NC(=O)[C@@H](NC(=O)[C@H](C)NC(=O)[C@@H]1CSSC[C@H](NC(=O)[C@@H](N)CCCCNC(=O)CC[C@H](NC(=O)CCCCCCCCCCCCCCCCCCC(=O)O)C(=O)O)C(=O)N[C@@H](CC(N)=O)C(=O)N[C@@H]([C@@H](C)O)C(=O)N[C@@H](C)C(=O)N[C@@H]([C@@H](C)O)C(=O)N1)[C@@H](C)O)C(=O)N1CCC[C@H]1C(=O)N[C@@H](CO)C(=O)N[C@@H](CO)C(=O)N[C@H](C(=O)N1CCC[C@H]1C(=O)N[C@H](C(=O)NCC(=O)N1CCC[C@H]1C(=O)N[C@@H](CC(N)=O)C(=O)N[C@H](C(=O)N[C@@H](Cc1ccc(O)cc1)C(N)=O)[C@@H](C)O)C(C)C)[C@@H](C)O
B5: N^ε1-[(4S)-4-carboxy-4-(19-carboxynonadecanoylamino)butanoyl]-[His14,Arg17,Pro21,Pro27]-h-amylin (peptide)
peptide: K([γGlu-C20 diacid])CNTATCATQRLAHFLRHSSPNFGAIPSSTNVGSNTY-NH2
modifications: disulfide 2-7; N-terminus assumed
SMILES: CC[C@H](C)[C@H](NC(=O)[C@H](C)NC(=O)CNC(=O)[C@H](Cc1ccccc1)NC(=O)[C@H](CC(N)=O)NC(=O)[C@@H]1CCCN1C(=O)[C@H](CO)NC(=O)[C@H](CO)NC(=O)[C@H](Cc1c[nH]cn1)NC(=O)[C@H](CCCNC(=N)N)NC(=O)[C@H](CC(C)C)NC(=O)[C@H](Cc1ccccc1)NC(=O)[C@H](Cc1c[nH]cn1)NC(=O)[C@H](C)NC(=O)[C@H](CC(C)C)NC(=O)[C@H](CCCNC(=N)N)NC(=O)[C@H](CCC(N)=O)NC(=O)[C@@H](NC(=O)[C@H](C)NC(=O)[C@@H]1CSSC[C@H](NC(=O)[C@@H](N)CCCCNC(=O)CC[C@H](NC(=O)CCCCCCCCCCCCCCCCCCC(=O)O)C(=O)O)C(=O)N[C@@H](CC(N)=O)C(=O)N[C@@H]([C@@H](C)O)C(=O)N[C@@H](C)C(=O)N[C@@H]([C@@H](C)O)C(=O)N1)[C@@H](C)O)C(=O)N1CCC[C@H]1C(=O)N[C@@H](CO)C(=O)N[C@@H](CO)C(=O)N[C@H](C(=O)N[C@@H](CC(N)=O)C(=O)N[C@H](C(=O)NCC(=O)N[C@@H](CO)C(=O)N[C@@H](CC(N)=O)C(=O)N[C@H](C(=O)N[C@@H](Cc1ccc(O)cc1)C(N)=O)[C@@H](C)O)C(C)C)[C@@H](C)O
notes: also called compound 70
B6: N^ε1-[(4S)-4-carboxy-4-(19-carboxynonadecanoylamino)butanoyl]-[His14,Arg17,Pro21,Pro27,Arg34]-h-amylin (peptide)
peptide: K([γGlu-C20 diacid])CNTATCATQRLAHFLRHSSPNFGAIPSSTNVGRNTY-NH2
modifications: disulfide 2-7; N-terminus assumed
SMILES: CC[C@H](C)[C@H](NC(=O)[C@H](C)NC(=O)CNC(=O)[C@H](Cc1ccccc1)NC(=O)[C@H](CC(N)=O)NC(=O)[C@@H]1CCCN1C(=O)[C@H](CO)NC(=O)[C@H](CO)NC(=O)[C@H](Cc1c[nH]cn1)NC(=O)[C@H](CCCNC(=N)N)NC(=O)[C@H](CC(C)C)NC(=O)[C@H](Cc1ccccc1)NC(=O)[C@H](Cc1c[nH]cn1)NC(=O)[C@H](C)NC(=O)[C@H](CC(C)C)NC(=O)[C@H](CCCNC(=N)N)NC(=O)[C@H](CCC(N)=O)NC(=O)[C@@H](NC(=O)[C@H](C)NC(=O)[C@@H]1CSSC[C@H](NC(=O)[C@@H](N)CCCCNC(=O)CC[C@H](NC(=O)CCCCCCCCCCCCCCCCCCC(=O)O)C(=O)O)C(=O)N[C@@H](CC(N)=O)C(=O)N[C@@H]([C@@H](C)O)C(=O)N[C@@H](C)C(=O)N[C@@H]([C@@H](C)O)C(=O)N1)[C@@H](C)O)C(=O)N1CCC[C@H]1C(=O)N[C@@H](CO)C(=O)N[C@@H](CO)C(=O)N[C@H](C(=O)N[C@@H](CC(N)=O)C(=O)N[C@H](C(=O)NCC(=O)N[C@@H](CCCNC(=N)N)C(=O)N[C@@H](CC(N)=O)C(=O)N[C@H](C(=O)N[C@@H](Cc1ccc(O)cc1)C(N)=O)[C@@H](C)O)C(C)C)[C@@H](C)O
notes: also called compound 85

Molecular target: T1, human calcitonin receptor
Assay: ratio of IC50 at human calcitonin receptor to IC50 at human amylin receptor (SPA competition assays)
In short: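 Membranes (35 ng/μL final) + SPA beads, 50 mM Hepes pH 7.4 buffer with 1 mM CaCl2, 5 mM MgCl₂, 0.1% OA, 0.02% Tween20; 120 min, 25° C, shaking; centrifuged, counted; IC₅₀ by one-site binding competition.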

| Ratio hCT/hAmylin binding | Binder |
| --- | --- |
| 13.3 | B1 |
| 87.2 | B2 |
| 48.6 | B3 |
| 21.2 | K([γGlu-C20 diacid])CNTATCATQRLAEFLRHSSPNFGAIPSSTNVGPHTY-NH2 (disulfide 2-7) |
| 24.8 | B4 |
| 60.8 | B5 |
| 91.8 | B6 |

Molecular target: T1, human calcitonin receptor
Assay: SPA radioligand competition (125I-calcitonin), membranes of BHK cells with human calcitonin receptor
In short: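 BHK hCTR membranes 35 ng/μL + SPA beads 0.05 mg/well; buffer 50 mM Hepes pH 7.4, 1 mM CaCl2, 5 mM MgCl₂, 0.1% OA, 0.02% Tween20. 120 min, 25° C., shaking. Scintillation count; IC50 by one-site binding competition.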

| IC50 | Binder |
| --- | --- |
| 1.86 nM | B1 |
| 23.6 nM | B2 |
| 42.8 nM | B3 |
| 3.8 nM | K([γGlu-C20 diacid])CNTATCATQRLAEFLRHSSPNFGAIPSSTNVGPHTY-NH2 (disulfide 2-7) |
| 2.04 nM | B4 |
| 10.3 nM | B5 |
| 80.4 nM | B6 |
